Experimental findings from publication PMC9483116, “Deubiquitination of BES1 by UBP12/UBP13 promotes brassinosteroid signaling and plant growth” (Plant Communications, 2022) are described below.

Common to all, as to assay: pull-down; in vitro; GST-tagged proteins bound to glutathione resin as bait, MBP-tagged proteins incubated with them; about 2 ug of each protein; immunoblot with anti-myc or anti-MBP
What all share (settings): both partners purified
For orientation: Immunoblotting shows a protein as a band on a membrane.

One experiment addresses T1, GST-UBP12 (full-length) (Arabidopsis thaliana, UniProt Q9FPT1 1-1116).
T1 construct: UBP12 (ubiquitin-specific protease 12), Arabidopsis thaliana, At5g06600; full length (1-1116 by the limits printed for its N and C derivatives); not shown: GST, N-terminal, kept
T1 sequence (looked up): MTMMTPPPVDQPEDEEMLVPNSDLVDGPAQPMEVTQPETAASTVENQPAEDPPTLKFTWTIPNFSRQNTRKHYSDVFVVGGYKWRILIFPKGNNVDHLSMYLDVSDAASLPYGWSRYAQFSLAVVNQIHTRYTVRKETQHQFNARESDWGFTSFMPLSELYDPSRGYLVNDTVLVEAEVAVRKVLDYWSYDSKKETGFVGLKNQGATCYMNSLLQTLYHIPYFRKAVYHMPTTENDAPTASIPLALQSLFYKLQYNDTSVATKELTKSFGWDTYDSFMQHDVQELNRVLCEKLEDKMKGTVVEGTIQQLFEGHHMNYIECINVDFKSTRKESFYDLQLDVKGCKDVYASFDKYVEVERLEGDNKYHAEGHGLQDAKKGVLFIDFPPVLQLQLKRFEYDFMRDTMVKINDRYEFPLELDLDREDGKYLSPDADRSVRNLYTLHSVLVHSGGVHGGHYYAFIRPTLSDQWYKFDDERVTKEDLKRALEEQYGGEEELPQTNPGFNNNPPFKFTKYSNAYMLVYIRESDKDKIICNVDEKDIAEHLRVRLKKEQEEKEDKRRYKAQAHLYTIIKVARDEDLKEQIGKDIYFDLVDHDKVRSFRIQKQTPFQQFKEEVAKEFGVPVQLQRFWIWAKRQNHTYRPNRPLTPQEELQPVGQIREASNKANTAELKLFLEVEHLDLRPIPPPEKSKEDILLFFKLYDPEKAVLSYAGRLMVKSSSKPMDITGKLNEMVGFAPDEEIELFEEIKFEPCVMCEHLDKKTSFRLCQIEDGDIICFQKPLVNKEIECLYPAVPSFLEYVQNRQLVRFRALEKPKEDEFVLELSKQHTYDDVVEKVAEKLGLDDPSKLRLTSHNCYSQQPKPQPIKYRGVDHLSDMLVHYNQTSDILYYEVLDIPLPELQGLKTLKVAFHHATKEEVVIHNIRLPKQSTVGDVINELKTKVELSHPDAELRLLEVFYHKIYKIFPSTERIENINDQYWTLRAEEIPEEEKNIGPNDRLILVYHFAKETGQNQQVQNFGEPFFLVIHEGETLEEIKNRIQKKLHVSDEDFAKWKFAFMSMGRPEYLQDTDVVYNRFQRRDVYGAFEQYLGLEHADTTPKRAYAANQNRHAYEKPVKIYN

The target in a further experiment is T2, GST-UBP13 (full-length) (Arabidopsis thaliana, UniProt Q84WU2 1-1115).
T2 construct: UBP13 (ubiquitin-specific protease 13), Arabidopsis thaliana, At3g11910; full length
T2 sequence (looked up): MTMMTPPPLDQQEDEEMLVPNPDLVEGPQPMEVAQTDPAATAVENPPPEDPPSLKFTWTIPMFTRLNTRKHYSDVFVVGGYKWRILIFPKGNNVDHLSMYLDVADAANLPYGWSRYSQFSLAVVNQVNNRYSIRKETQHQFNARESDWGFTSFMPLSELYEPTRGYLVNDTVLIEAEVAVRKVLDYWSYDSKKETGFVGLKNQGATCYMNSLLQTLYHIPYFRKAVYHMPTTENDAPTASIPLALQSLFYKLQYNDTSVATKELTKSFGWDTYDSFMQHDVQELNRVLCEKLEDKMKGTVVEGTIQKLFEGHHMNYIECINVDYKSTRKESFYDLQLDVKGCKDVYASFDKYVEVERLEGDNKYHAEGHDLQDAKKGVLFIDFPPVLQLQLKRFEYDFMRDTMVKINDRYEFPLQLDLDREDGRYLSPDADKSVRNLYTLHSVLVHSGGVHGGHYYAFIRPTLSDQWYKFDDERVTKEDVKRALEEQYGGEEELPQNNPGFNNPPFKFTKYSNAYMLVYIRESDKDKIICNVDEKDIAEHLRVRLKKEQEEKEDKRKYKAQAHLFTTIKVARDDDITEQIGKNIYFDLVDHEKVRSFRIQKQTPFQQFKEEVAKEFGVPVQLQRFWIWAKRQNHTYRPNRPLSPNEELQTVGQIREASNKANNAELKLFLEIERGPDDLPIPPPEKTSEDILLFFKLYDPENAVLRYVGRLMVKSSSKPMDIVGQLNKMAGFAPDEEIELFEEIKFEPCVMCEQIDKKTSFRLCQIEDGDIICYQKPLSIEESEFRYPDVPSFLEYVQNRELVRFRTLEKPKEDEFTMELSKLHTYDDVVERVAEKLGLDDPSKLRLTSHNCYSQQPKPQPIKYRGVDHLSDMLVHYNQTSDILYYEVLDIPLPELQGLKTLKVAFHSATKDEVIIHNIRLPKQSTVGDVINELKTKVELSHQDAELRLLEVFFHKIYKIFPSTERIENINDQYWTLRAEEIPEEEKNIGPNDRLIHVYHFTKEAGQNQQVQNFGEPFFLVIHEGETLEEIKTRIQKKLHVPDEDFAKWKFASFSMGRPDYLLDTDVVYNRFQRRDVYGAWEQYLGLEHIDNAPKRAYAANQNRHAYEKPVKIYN

Experiment [1] deals with T3, GST-UBP12-N (N-terminal region of UBP12, amino acids 1–541) (Arabidopsis thaliana, UniProt Q9FPT1 1-541).
T3 construct: UBP12, Arabidopsis thaliana, At5g06600; N-terminal region, amino acids 1-541, with the MATH domain and the cysteine/histidine-containing catalytic domain
T3 sequence (looked up): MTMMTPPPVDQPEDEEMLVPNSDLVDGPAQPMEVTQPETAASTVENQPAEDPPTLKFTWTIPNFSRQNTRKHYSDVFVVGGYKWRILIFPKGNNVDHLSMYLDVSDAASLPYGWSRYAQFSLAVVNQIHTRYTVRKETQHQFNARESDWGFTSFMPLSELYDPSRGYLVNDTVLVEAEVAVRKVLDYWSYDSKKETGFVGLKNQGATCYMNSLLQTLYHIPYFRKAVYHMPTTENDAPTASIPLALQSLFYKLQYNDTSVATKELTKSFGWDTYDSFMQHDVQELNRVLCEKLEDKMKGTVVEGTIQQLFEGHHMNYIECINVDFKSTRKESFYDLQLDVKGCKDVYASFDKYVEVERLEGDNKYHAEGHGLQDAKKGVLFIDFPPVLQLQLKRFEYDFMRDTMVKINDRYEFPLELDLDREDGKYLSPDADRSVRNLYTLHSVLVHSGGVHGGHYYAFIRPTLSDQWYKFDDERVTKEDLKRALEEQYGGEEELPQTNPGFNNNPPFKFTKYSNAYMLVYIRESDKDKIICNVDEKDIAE

B1: MBP-BES1-myc (BRI1-EMS-SUPPRESSOR 1) (natural protein, Arabidopsis thaliana, UniProt Q9LN63 1-335, looked up)
chain: MTSDGATSTSAAAAAAAMATRRKPSWRERENNRRRERRRRAVAAKIYTGLRAQGNYNLPKHCDNNEVLKALCSEAGWVVEEDGTTYRKGHKPLPGDMAGSSSRATPYSSHNQSPLSSTFDSPILSYQVSPSSSSFPSPSRVGDPHNISTIFPFLRNGGIPSSLPPLRISNSAPVTPPVSSPTSRNPKPLPTWESFTKQSMSMAAKQSMTSLNYPFYAVSAPASPTHHRQFHAPATIPECDESDSSTVDSGHWISFQKFAQQQPFSASMVPTSPTFNLVKPAPQQLSPNTAAIQEIGQSSEFKFENSQVKPWEGERIHDVAMEDLELTLGNGKAHS
notes: BES1 (BRI1-EMS-SUPPRESSOR 1), Arabidopsis thaliana, At1g19350; source: E. coli BL21 (DE3) pLysS, purified (amylose resin); not shown: MBP, N-terminal, kept; 6x myc, C-terminal, kept
As to B1, the binding result (with GST-UBP12 (full-length); with GST-UBP13 (full-length); in experiment [1]) was “binds” in each case.

B2: MBP-BZR1-myc (BRASSINAZOLE RESISTANT1) (natural protein, Arabidopsis thaliana, UniProt Q8S307 1-336, looked up)
chain: MTSDGATSTSAAAAAAAAAAARRKPSWRERENNRRRERRRRAVAAKIYTGLRAQGDYNLPKHCDNNEVLKALCVEAGWVVEEDGTTYRKGCKPLPGEIAGTSSRVTPYSSQNQSPLSSAFQSPIPSYQVSPSSSSFPSPSRGEPNNNMSSTFFPFLRNGGIPSSLPSLRISNSCPVTPPVSSPTSKNPKPLPNWESIAKQSMAIAKQSMASFNYPFYAVSAPASPTHRHQFHTPATIPECDESDSSTVDSGHWISFQKFAQQQPFSASMVPTSPTFNLVKPAPQQMSPNTAAFQEIGQSSEFKFENSQVKPWEGERIHDVGMEDLELTLGNGKARG
notes: BZR1 (BRASSINAZOLE RESISTANT1), Arabidopsis thaliana, At1g75080; source: E. coli BL21 (DE3) pLysS, purified (amylose resin); not shown: MBP, N-terminal, kept; 6x myc, C-terminal, kept
For B2, the binding result with GST-UBP12 (full-length) and in the experiment with GST-UBP13 (full-length) was “binds” each time.
